Measured values reported in publication PMC8988209, “AAV‐mediated delivery of an anti‐BACE1 VHH alleviates pathology in an Alzheimer's disease model” (EMBO Molecular Medicine, 2022).

B1: VHH‐10C4 (VHH)
VHH: QVQLQESGGGSVQAGGFLRLSCAASGYTYSTCSMAWYRQAPGKERELVSSIRNDGSTAYADSVKGRFTISQDNAKNTVYLQMNSLKPEDTAMYYCNIRIGVGPGGTCSIYAPYWGEGTQVTVSS
B2: VHH‐4A2 (VHH)
VHH: QVQLQESGGGLVQPGGSLRLSCAASGFTFETQYMTWVRQAPGKGPEYVSSINSGGTIKYYANSSVKGRFTISRDNAKNTLYLQMNNLRPEDTAIYYCQLGQWAGVGAASSRGQGTQVTVSS
B3: VHH‐B9 (VHH)
VHH: DVQLQESGGGSVQAGGSLRLSCAASEYTYGYCSMGWYRQAPGKERELVSTITSDGSTSYVDSVKGRFTISQDNAKNTVYLQMNSLKPEDTAKYYCYTKTCANKLGAKFISWGQGTQVTVSS
notes: Recombinant form used in SPR, BLI, dot blot (detected by anti-His) and the cleavage assays; source: E. coli WK6 (pHEN6), periplasmic extract, purified (Ni-NTA, Superdex-75); not shown: His6, C-terminal, kept

What was measured:
[1] = biological target: human BACE1 (amino acids 1–460) fused to the constant region of human IgG1 (hBACE1:Fc), wild type (human) (UniProt P56817)
human BACE1 (amino acids 1–460) fused to the constant region of human IgG1 (hBACE1:Fc), wild type (human), sequence (P56817 22-460): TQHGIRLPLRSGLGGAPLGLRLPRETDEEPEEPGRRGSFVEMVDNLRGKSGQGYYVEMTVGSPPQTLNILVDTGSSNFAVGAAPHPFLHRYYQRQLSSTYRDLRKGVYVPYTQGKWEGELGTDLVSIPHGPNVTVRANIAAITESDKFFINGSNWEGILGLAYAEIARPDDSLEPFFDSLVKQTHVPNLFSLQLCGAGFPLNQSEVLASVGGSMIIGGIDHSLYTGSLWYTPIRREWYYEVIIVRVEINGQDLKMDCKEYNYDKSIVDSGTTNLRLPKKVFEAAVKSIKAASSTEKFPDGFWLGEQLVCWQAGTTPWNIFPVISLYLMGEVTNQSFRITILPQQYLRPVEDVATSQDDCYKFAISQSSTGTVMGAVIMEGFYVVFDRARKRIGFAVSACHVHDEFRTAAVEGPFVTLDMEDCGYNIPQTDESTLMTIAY

[2] = biological target: purified human BACE1 ectodomain (human) (UniProt P56817); assay: SPR; BIAcore; 2,500 RU purified BACE1 ectodomain amine-coupled to a CM5 chip; VHHs injected at 0–500 nM, 25°C; citrate buffer with 150 mM NaCl, 3.5 mM EDTA, 0.005% Tween-20 at pH 4.5
purified human BACE1 ectodomain (human), sequence (P56817 22-457): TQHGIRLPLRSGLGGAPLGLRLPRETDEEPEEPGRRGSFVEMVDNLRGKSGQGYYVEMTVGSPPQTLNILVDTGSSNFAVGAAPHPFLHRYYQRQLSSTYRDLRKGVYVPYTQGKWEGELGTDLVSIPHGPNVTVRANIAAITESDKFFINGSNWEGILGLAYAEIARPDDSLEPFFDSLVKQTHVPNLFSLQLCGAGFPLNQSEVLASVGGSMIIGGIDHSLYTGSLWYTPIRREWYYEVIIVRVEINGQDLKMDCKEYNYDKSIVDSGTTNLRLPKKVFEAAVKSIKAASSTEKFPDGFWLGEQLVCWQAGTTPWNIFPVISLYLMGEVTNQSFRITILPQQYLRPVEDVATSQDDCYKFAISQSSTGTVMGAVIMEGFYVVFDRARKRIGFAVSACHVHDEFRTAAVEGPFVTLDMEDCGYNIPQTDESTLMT

[3] = biological target: purified human BACE1 ectodomain (human) (UniProt P56817); assay: SPR; BIAcore; 2,500 RU purified BACE1 ectodomain amine-coupled to a CM5 chip; VHHs injected at 0–500 nM, 30 μl/min, 25°C; HBS buffer (10 mM Hepes (pH 7.5), 150 mM NaCl, 3.5 mM EDTA, 0.005% Tween-20); table gives pH 7.0
biotinylated mouse BACE1 [4] = biological target: T1, biotinylated mouse BACE1 (Mus musculus, UniProt P56818, biotin); assay: cell-based or functional assay
T1 sequence (P56818 46-501): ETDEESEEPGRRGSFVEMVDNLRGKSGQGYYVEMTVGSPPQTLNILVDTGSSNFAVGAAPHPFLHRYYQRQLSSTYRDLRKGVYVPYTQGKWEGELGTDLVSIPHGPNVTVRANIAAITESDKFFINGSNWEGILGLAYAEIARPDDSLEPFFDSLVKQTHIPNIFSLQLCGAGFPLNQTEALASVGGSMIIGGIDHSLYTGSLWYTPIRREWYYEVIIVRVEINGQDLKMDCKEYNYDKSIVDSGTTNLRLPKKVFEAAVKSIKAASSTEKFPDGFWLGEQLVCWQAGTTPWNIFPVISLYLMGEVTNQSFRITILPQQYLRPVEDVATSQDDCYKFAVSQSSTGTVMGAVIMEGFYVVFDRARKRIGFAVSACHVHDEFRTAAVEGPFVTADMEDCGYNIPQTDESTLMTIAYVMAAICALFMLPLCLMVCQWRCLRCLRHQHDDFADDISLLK

[5] = biological target: human BACE1 (amino acids 1–460) fused to the constant region of human IgG1 (hBACE1:Fc), wild type (Homo sapiens, UniProt P56817); assay: cell-based or functional assay
human BACE1 (amino acids 1–460) fused to the constant region of human IgG1 (hBACE1:Fc), wild type, sequence (P56817 22-460): as the sequence (P56817 22-460) above

mouse BACE2 = biological target: T2, mouse BACE2 (Mus musculus, UniProt Q9JL18); assay: BLI; OctetRED96; biotinylated human or mouse BACE1 immobilised at 1 μg/ml on streptavidin biosensors; serial dilutions of VHH-B9 (table: Conc. 100 nM); Kinetic Buffer, 25°C, 1,000 rpm; 1:1 fitting model; details: both partners purified
T2 construct: mouse BACE2; also called mBACE2
T2 sequence (Q9JL18 20-514): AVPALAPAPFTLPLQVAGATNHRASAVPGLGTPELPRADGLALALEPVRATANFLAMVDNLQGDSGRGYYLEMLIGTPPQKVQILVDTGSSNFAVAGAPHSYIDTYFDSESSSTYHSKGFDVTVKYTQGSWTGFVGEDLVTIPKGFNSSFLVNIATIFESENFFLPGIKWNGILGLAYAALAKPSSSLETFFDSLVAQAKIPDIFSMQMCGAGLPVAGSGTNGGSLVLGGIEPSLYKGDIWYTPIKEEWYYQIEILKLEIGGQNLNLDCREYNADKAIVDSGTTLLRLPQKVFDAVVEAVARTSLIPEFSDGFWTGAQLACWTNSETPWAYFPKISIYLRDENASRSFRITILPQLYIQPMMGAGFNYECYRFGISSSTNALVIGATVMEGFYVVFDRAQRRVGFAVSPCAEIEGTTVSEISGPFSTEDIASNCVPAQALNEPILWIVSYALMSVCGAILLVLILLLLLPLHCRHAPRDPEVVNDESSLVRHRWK

biotinylated human BACE1 = biological target: T3, biotinylated human BACE1 (Homo sapiens, UniProt P56817, biotin); assay: as above; details: both partners purified
T3 construct: human BACE1, biotinylated and immobilised on streptavidin biosensors; Probably an ectodomain preparation; also called hBACE1; biotinylated BACE1
T3 sequence (P56817 46-501): as the sequence (P56818 46-501) above, with S6P, I162V, I165L, T180S, A182V, V340I, A393L, H443Q counted along it

biotinylated mouse BACE1 [6] = biological target: T1, biotinylated mouse BACE1; assay: as above; details: both partners purified

| Binder | EC50 of inhibition of hBACE1:Fc in the in vitro APP cleavage assay (MBP-C125sw substrate, cleavage product by ELISA) [1] [nM] | Kd [2] [nM] | koff [2] [s⁻¹] | kon [2] [M⁻¹ s⁻¹] | Kd [3] [nM] | koff [3] [s⁻¹] | kon [3] [M⁻¹ s⁻¹] | EC50 of lowering Aβ1-40 (ELISA of conditioned medium) in primary mouse neurons expressing human APP695, VHH-B9 from 10 µM to 0.7 nM (biotinylated mouse BACE1 [4]) [nM] | EC50 of inhibition of hBACE1:Fc in the in vitro APP cleavage assay (MBP-C125sw substrate, cleavage product by ELISA) [5] [nM] | binding result (mouse BACE2) | Kd (biotinylated human BACE1) [nM] | koff (biotinylated human BACE1) [s⁻¹] | kon (biotinylated human BACE1) [M⁻¹ s⁻¹] | Kd (biotinylated mouse BACE1 [6]) [nM] | koff (biotinylated mouse BACE1 [6]) [s⁻¹] | kon (biotinylated mouse BACE1 [6]) [M⁻¹ s⁻¹] |
| --- | --- | --- | --- | --- | --- | --- | --- | --- | --- | --- | --- | --- | --- | --- | --- | --- |
| B1 | 112 | 27.7 | 0.0125 | 451000 | 74.7 | 0.00792 | 106000 |  |  |  |  |  |  |  |  |  |
| B2 | 789 | 21.2 | 0.00841 | 397000 | 48.2 | 0.0231 | 479000 |  |  |  |  |  |  |  |  |  |
| B3 |  | 1.9 | 0.00013 | 662000 | 3.7 | 0.00098 | 267000 | 85.4 | 99.2 | no binding (tested: 100 nM) | 2.9 | 0.000443 | 153000 | 3.2 | 0.00072 | 224000 |
